Assay results published in article doi:10.1101/2022.09.20.508747, “Affinity-matured homotypic interactions induce spectrum of PfCSP-antibody structures that influence protection from malaria infection” (bioRxiv, 2022).
Changes are numbered by the printed parent chain. Primed or numbered codes have the meaning given here. No end group written: not given here. Biotin′ = biotin

T1: NPNA8 peptide, biotinylated (for BLI) (Plasmodium falciparum)
T1 construct: source: synthetic peptide, InnoPep Inc
T1 chain: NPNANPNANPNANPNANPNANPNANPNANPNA

T2: NPNA4 peptide, biotinylated (for BLI) (Plasmodium falciparum)
T2 construct: source: synthetic peptide, InnoPep Inc
T2 chain: NPNANPNANPNANPNA-{Biotin′}

T3: NPNA8 peptide (for cryo-EM) (Plasmodium falciparum)
T3 construct: source: synthetic peptide, InnoPep Inc
T3 chain: T1 chain

B1: 356 Fab (Fab, V domains shown)
VH: QVQLVESGGGVVQPGRSLRLSCAASGFTFRNFGMHWVRQTPGKGLEWVAVIWHDGSNKFYADSVEGRFTISRDNSKNMIYLQMNSLRVEDTAIYYCARDSLFYDHDNSGYYGYWGQGTLVTVSS
VL: QIVMTQSPATVSVSPGERATLSCRASRSVTSKLAWYQQKPGQAPRLLIYGASTRATGIPARFSGSGSGTEFTLTISSLQSEDFAVYFCQQYNNGFTFGPGTKVDFK
notes: also called mAb 356; source: ExpiCHO cells, purified (mAb Select PrismA or Capture Select, SEC)
B2: 356R Fab (Fab, V domains shown)
VH: B1 VH with R30S, N31S, F32Y, E65K
VL: B1 VL with Q1E, R27Q
notes: also called germline-reverted 356; source: ExpiCHO cells, purified (mAb Select PrismA or Capture Select, SEC)
B3: 334 Fab (Fab, V domains shown)
VH: QVQLVESGGGVVQPGRSLTLSCAASGFTFSNYGMHWVRQTPGKGLAWVAIIWYDGSKTYYEDSVKGRFTISRDNSKNTLYLQMNSLRVDDTAVYYCARVRHSSSRHGSAFDLWGQGTLVTVSS
VL: VIQMTQSPSTLSASVGDRVTITCRASQSVSTWLAWYQQKPGQGPKLLIYEASSLESGVPSRFSGSGSGTEFTLTISSLQPDDFATYYCQQYNSYSFWTFGQGTKVEIK
notes: also called mAb 334; source: ExpiCHO cells, purified (mAb Select PrismA or Capture Select, SEC)
B4: 311 Fab (Fab, V domains shown)
VH: QVQLVESGGGVVPPGRSLRLSCATSGFTFSNYGMHWVRQAPGKGLEWVAIIWYDGSRNFYAASVEGRFTISRDNSKNTLYLQMNSLRVEDTAVYYCARAAYYDTSGYGDYWGQGTLVTVSS
VL: QSVLTQPPSVSGAPGQTVTISCTGGSSNIGAGYDVHWYQQLPGTAPKLLIYGNINRPSGVPDRFSGSKSGTSASLAITGLQAEDEADYYCQSYDRRLSGSWVFGGGTKLTVL
notes: source: ExpiCHO cells, purified (mAb Select PrismA or Capture Select, SEC)
B5: 311R Fab (Fab, V domains shown)
VH: B4 VH with N31S, R57N, N58K, E65K
VL: B4 VL with R95S, R96S
notes: also called Fab311R; germline-reverted 311; source: ExpiCHO cells, purified (mAb Select PrismA or Capture Select, SEC)
B6: 337 Fab (Fab, V domains shown)
VH: QVQLVESGGGVVQPGRSLRLSCAASGFSFSTYGMHWVRQAPGKGLEWVALIWHDGSKKFYSESVRGRFTISRDNSMDTLYLQMSSLRAEDTAVYYCARDGADYFDSTGGAFDIWGQGTMVIVSS
VL: EIVMTQSPATLSVSPGERATLSCRASQSVSSNLAWYQQKPGQAPRLLIYGASTRATGIPARFSGSGSGTEFTLTISSLQSEDFATYYCQQYKTWWTFGQGTKVEIK
notes: also called mAb 337; source: ExpiCHO cells, purified (mAb Select PrismA or Capture Select, SEC)
B7: 227 Fab (Fab, V domains shown)
VH: QVQLVQSGGGVVQPGRSLRLSCVTSGFTFPAFGMHWVRQAPGKGLEWVAVIWYDGSKKYYADSVRGRFTISRDNSRNTLYLQMHSLRAEDTAVYYCARVKNYESSGYSQCLDYWGQGVLVTVAS
VL: QSVLTQPPSVSGAPGQRVTISCTGSSSNIGAGYDVHWYQQLPGTAPKLLIYGNGNRPSGVPDRFSGSKSGTSVSLAITGLQAEDEADYYCQSYDSSLSAFVFGTGTKVTVL
notes: also called mAb 227; source: ExpiCHO cells, purified (mAb Select PrismA or Capture Select, SEC)
B8: 239 Fab (Fab, V domains shown)
VH: QVQLVESGGGVVQPGRSLRLSCAASRLTFRNFGMHWVRQTPGKGLEWVAVIWHDGSNKFYADSVEGRFTISRDNSKNTLYLQMNSLRDEDTAIYYCAKDWGGASDRVFDYWGRGTLVIVSS
VL: DIQMTQSPSTLSASVGDRVTITCRASQSVSTSLAWYQQKPGKAPNLLIYQASTLYRGVPSRFSGSGSGTEFTLTIGSLQPDDFATYYCQHYNSYSRITFGQGTRLEIK
notes: also called mAb 239; source: ExpiCHO cells, purified (mAb Select PrismA or Capture Select, SEC)
B9: 239R Fab (Fab, V domains shown)
VH: B8 VH with R30S, N31S, F32Y, E65K
VL: B8 VL with R56T
notes: also called germline-reverted 239; source: ExpiCHO cells, purified (mAb Select PrismA or Capture Select, SEC)
B10: 364 Fab (Fab, V domains shown)
VH: QVQLVESGGGVVQPGGSLRLSCAASGFTFSGYGMHWVRQVPGKGLEWVAIIWFDGSQKYYADSVQGRFTISRDNSKKTLFLRMNSLRAEDTAVYYCAKVHDDEPTQDYWGQGTLVTVSS
VL: DIQMTQSPSTLSASVGDRVTITCRASQGISTSLAWYQQKPGKAPKLLIYKASSLESGVPSRFSGSGSGTEFTLTITSLQPEDFATYYCQQYKRYWTFGQGTKVEIK
notes: also called mAb 364; source: ExpiCHO cells, purified (mAb Select PrismA or Capture Select, SEC)

Experiments:
Details in all cases: both partners purified
[1] = biological target: T1, NPNA8 peptide, biotinylated (for BLI); test: BLI
[2] = biological target: T2, NPNA4 peptide, biotinylated (for BLI); test: BLI
[3] = biological target: T3, NPNA8 peptide (for cryo-EM); test: cryo-EM structure

| Binder | binding result [1] | binding result [2] | fold higher apparent affinity than 356 [2] [fold] | stoichiometry N [3] [Fabs per NPNA8 peptide] | fold lower apparent affinity than 239 [2] [fold] |
| --- | --- | --- | --- | --- | --- |
| B1 | binds | binds |  |  |  |
| B2 | binds |  | ~2 |  |  |
| B3 | binds | binds |  |  |  |
| B4 | binds | binds |  |  |  |
| B5 | binds | binds |  |  |  |
| B6 | binds | binds |  |  |  |
| B7 |  | binds |  | 4 |  |
| B8 | binds | binds |  |  |  |
| B9 | binds |  |  |  | ~2 |
| B10 | binds | binds |  |  |  |
